Source: patent EP3984547A1 (Universitat Pompeu Fabra, dated 2022)
Where no end group is shown, it is not given here.

T1: Histidine-tagged human TWEAK (His6-TWEAK) protein (R&D Systems) (human, UniProt O43508 93-249, limits assumed)
T1 construct: Bought protein, captured through the His6 tag on an NTA chip and then coupled covalently by amine coupling; also called human His6-TWEAK protein; histidine-tagged TWEAK; not shown: His6 tag
T1 sequence (looked up): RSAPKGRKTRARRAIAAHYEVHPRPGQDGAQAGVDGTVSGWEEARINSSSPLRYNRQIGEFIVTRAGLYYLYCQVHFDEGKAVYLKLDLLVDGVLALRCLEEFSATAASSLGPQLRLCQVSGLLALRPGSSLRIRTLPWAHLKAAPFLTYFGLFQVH

T2: TWEAK (Peprotech EC, Ltd, U.K.) (UniProt O43508 94-249, limits assumed)
T2 sequence (looked up): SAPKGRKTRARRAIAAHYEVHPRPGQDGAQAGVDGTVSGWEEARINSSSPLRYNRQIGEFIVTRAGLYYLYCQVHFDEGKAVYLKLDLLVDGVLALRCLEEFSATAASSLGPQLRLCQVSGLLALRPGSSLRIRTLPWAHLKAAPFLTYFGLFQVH


Columns and labels:
[1] = biological target: T1, Histidine-tagged human TWEAK …; experiment: SPR (Biacore 3000), His6-TWEAK immobilized on NTA chip, peptide as analyte, 1:1 Langmuir fit
[2] = biological target: T2, TWEAK (Peprotech EC, Ltd, U.K.); experiment: cell-based or functional assay

Binder | Kd [1] [µM] | BIRC2 normalized level of expression (Zscore vs NARS2), RT-PCR, cells with peptide at 450 µM [2] [Zscore] | HSP90B1 normalized level of expression (Zscore vs NARS2), RT-PCR, cells with peptide at 450 µM [2] [Zscore] | IL6 normalized level of expression (Zscore vs NARS2), RT-PCR, cells with peptide at 450 µM [2] [Zscore] | JUN normalized level of expression (Zscore vs NARS2), RT-PCR, cells with peptide at 450 µM [2] [Zscore] | MAP4K4 normalized level of expression (Zscore vs NARS2), RT-PCR, cells with peptide at 450 µM [2] [Zscore] | MAPK14 normalized level of expression (Zscore vs NARS2), RT-PCR, cells with peptide at 450 µM [2] [Zscore] | NFkB2 normalized level of expression (Zscore vs NARS2), RT-PCR, cells with peptide at 450 µM [2] [Zscore] | TNFRSF12A normalized level of expression (Zscore vs NARS2), RT-PCR, cells with peptide at 450 µM [2] [Zscore] | TRAF2 normalized level of expression (Zscore vs NARS2), RT-PCR, cells with peptide at 450 µM [2] [Zscore]
TTDGSTGDDLQA-NH2 [Peptide 2: TTDGSTGDDLQA (SEQ ID NO: 1)] | 170 | -0.996 | -1.31 | -0.535 | -0.488 | -1.13 | -1.01 | -1.21 | -1.11 | -0.409
SWYDHMAGDSSY-NH2 [Peptide 1: SWYDHMAGDSSY (SEQ ID NO: 2)] | – | -0.747 | -1.1 | 0.198 | -0.509 | -1.7 | -1.11 | -1.51 | -1.05 | -0.548

The remaining lines, values ahead:

Kd [1] [µM] | BIRC2 normalized level of expression (Zscore vs NARS2), RT-PCR, cells with peptide at 450 µM [2] [Zscore] | HSP90B1 normalized level of expression (Zscore vs NARS2), RT-PCR, cells with peptide at 450 µM [2] [Zscore] | IL6 normalized level of expression (Zscore vs NARS2), RT-PCR, cells with peptide at 450 µM [2] [Zscore] | JUN normalized level of expression (Zscore vs NARS2), RT-PCR, cells with peptide at 450 µM [2] [Zscore] | MAP4K4 normalized level of expression (Zscore vs NARS2), RT-PCR, cells with peptide at 450 µM [2] [Zscore] | MAPK14 normalized level of expression (Zscore vs NARS2), RT-PCR, cells with peptide at 450 µM [2] [Zscore] | NFkB2 normalized level of expression (Zscore vs NARS2), RT-PCR, cells with peptide at 450 µM [2] [Zscore] | TNFRSF12A normalized level of expression (Zscore vs NARS2), RT-PCR, cells with peptide at 450 µM [2] [Zscore] | TRAF2 normalized level of expression (Zscore vs NARS2), RT-PCR, cells with peptide at 450 µM [2] [Zscore] | Binder
– | -0.115 | -0.468 | -0.972 | -0.206 | -1.36 | -0.585 | -1.15 | -1.08 | -0.577 | SYTDVQDS-NH2 [Peptide 3: SYTDVQDS (SEQ ID NO: 3)]
– | -0.61 | -0.921 | -0.045 | -0.509 | -1.56 | -1.11 | -1.32 | -1.11 | -0.439 | DNGGGNTDIYSE-NH2 [Peptide 4: DNGGGNTDIYSE (SEQ ID NO: 4)]
